Target: the model collagen surfaces
Test: SPR

adsorbed amount: 1 to 2 mg/m^2
Substance: lubricin (PRG4), purified from human synovial fluid (natural protein)
